Experimental data published in the supplement of paper PMC12042874.
± gives the uncertainty stated by the source.

Experiment: amyloid nucleation score (Sup35N fusion, yeast selection) (log enrichment); library NNK3; higher = more nucleation; inactive = no reads after selection
Outline: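 Three technical output replicates were used for random libraries. Psi-negative yeast expressing peptides of 20 random codons fused to Sup35N were induced with 100 μM copper sulfate for 24 hours and grown 7 days at 30°C on medium lacking adenine and uracil, and input and output plasmid inserts were Illumina-sequenced, excluding sequences with under 100 input reads. The nucleation score is the DiMSum log enrichment of output over input reads, centred on the mode score of non-aggregating sequences.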

Substance	amyloid nucleation score
VSFSSCTWSMQEERMLVSWG	inactive
LIYRSLPFSCLSSGV	inactive
SIFFNVVLFWGVWELTQGNR	0.803 ± 0.27
RPKTTH	inactive
DVMSILLTNVMLSKSALELS	inactive
CQWANY	-0.508 ± 1
LKDNPNSLWC	-0.224 ± 1.1
RVIMKIIVTFTA	0.832 ± 0.23
YPLFMDYMLTCVHM	inactive
SMDMRWAFICLILTITSMGR	inactive
MMGTSWDWRYRYLRLRGEEC	inactive
AWQYVGMISFM	inactive
TTLQEDGYRDACGYMASVFW	inactive
SRSVMIPVNS	-0.038 ± 0.75
RILHFTICPNQWTRYKVDS	inactive
MVLPLSYKQSCFQLCKFLDN	inactive
CAWVHIS	inactive
NEVMGFFNDQWRMIWWGYPR	inactive
NLFSRIVHSGLRMSTNCILI	inactive
YTGSMAGSTYLTGKLSLDDR	inactive
AGYGSVSRLSMEKMEFNQ	inactive
DCHLPKIKYFAITYFCFFRR	inactive
ISHVNRSNLVFLYFIVVL	0.669 ± 0.15
ISTLSVSLS	-0.258 ± 0.36
SQKFVYLMSPSWPGGQLEAR	inactive

Substance	amyloid nucleation score
IQDHYSDPAN	inactive
HSWNFGVCG	0.229 ± 0.2
SNLMYGNISINLDRWYVAFF	2.51 ± 0.074
ISIETGWRNHFTSVPACMLH	inactive
QLRASA	inactive
LVYNTDQSTRYAMTDYDADL	inactive
FSVQAIWFVMSLNRFLGKGR	inactive
VKYYDFCEPGRGYKDIRRL	inactive
DQQCDDVWRRWDGYGRRKKR	inactive
VNFFGR	inactive
NECLVDTA	inactive
NYVLRTSVVL	inactive
VICGCWIFFFYFLK	-0.354 ± 0.73
VSLLSVCGCDRRVFEVWHYG	0.446 ± 0.2
FFVLLLFVRVYKIALNFMMG	inactive
GISYLVRNSGAKRGD	inactive
IVADLHIHCEPRFSSHLTYE	inactive
SNYVMKVYRACHQVQPTISA	inactive
FCFYRKKGVVGCILFYACFR	inactive
LLRRLYLTLACPFYLMHTKC	inactive
TIHIHFVGHDVCNRVVGVHH	1.24 ± 0.18
NSDFLSTVGYEGLLHTQGCA	inactive
CWFRLYQRNARVVDNFVNHG	inactive
CEYAYFGMDYLLEAGSKSDY	inactive
YLRDNKAWLASSSKL	inactive

Substance	amyloid nucleation score
VISGNNVCSIRSDFRKIFFY	0.762 ± 0.17
VVDGLMAVFLSHVRVAIYYV	inactive
TVSLRCWARLSNTDFIRFNS	inactive
MSGVDYLTRLFVYTNESDAV	inactive
ETYFAQWLNFL	inactive
LNLVVRHFPTNR	inactive
SDCCYRTYVEIQKWSLVF	inactive
LCLGFVHPVIPFWIAML	inactive
FNKLEVRNRQEWLSGRFWDH	-0.091 ± 0.36
MMWDL	inactive
ACTRWS	inactive
LSIDMSLYLCSTFYFK	2.31 ± 0.06
SFVQEMGDPPYHKQSQQLRS	inactive
YRKLFDFRRVSTLHFTKSN	inactive
DSLLDGYSHWAKWGSTRCVR	inactive
WDLITL	inactive
QHNSK	inactive
HSFREYKRVNLYYPFYKDCL	0.467 ± 0.13
SMSMDAYPQPPLNAMVLVSH	inactive
QLCLCRKATLMSPTRLLQRA	-0.41 ± 1.9
HFNEEGAQ	-0.309 ± 1.1
DEFVCLEVDNLCMVCSEKM	-0.067 ± 0.73
VMKSYDWEDWSSDPFIFRYV	inactive
GVYYSCAFSTLIKGVNRSTV	inactive
CVDQT	inactive

Substance	amyloid nucleation score
IHCLLLDRVTNLFLTMQAG	inactive
IDISIL	inactive
NLNFDWTPVPSFSYHAPSKF	inactive
KFLKLQVYASNGSSDPPRLD	inactive
VMVFN	0.635 ± 0.36
ELRELFQNCL	inactive
GWRCCWIIWADAVYE	3.05 ± 0.075
YRILTGLSLSFRVCIYFVW	inactive
NGYLACSPFS	inactive
HNMNR	inactive
FYLYPDVERLNFCIMVRHMF	inactive
RCMIVASFYLSLIWKI	inactive
ASWKLITCQNSAFR	inactive
LNCMVITFVCFLVSNSIGGD	1.71 ± 0.11
WYMCLGSLMSIVF	inactive
KVVVTIRTVCRKKVDVICID	0.071 ± 0.72
TCSYNSGKYNFE	inactive
GIREAV	inactive
IEYWFASRTFWSCRNMVRH	-0.342 ± 0.98
RDSLFSV	inactive
LLVLLVFTALY	inactive
RIFYKVDTDGIIIIVYS	inactive
RFAPFMRGM	-0.784 ± 1.5
SVYDCQLVACHLMRDHKK	inactive
WTWGKAYDAMFLIVTFFCIF	inactive

Substance	amyloid nucleation score
CVVNGDLVASLKSLFLGWCL	inactive
IEACSVSM	0.059 ± 0.98
VQDPDL	inactive
MYRLIVYT	inactive
VGYMALQETILVIVDDGVTE	inactive
VDAIASGVYWPPVVVYSWLF	inactive
RGIEVMDLTLARAHKRA	inactive
PGFINFRGVTGKSLTYSILI	inactive
YKSPFTGNCLYTVVIKDINL	1.55 ± 0.085
FGEVNIAYRMIMRMSGQGGK	0.998 ± 0.17
HHLSSDVSVLAFCNLPESNR	1.21 ± 0.17
LNRSSFHLELITSTCKVFLV	inactive
AVRSFLTWISMN	inactive
AVGNCSSWGYGSSTLP	inactive
VIWVPVKIR	inactive
KISNFLTSSLCMYGSLRWRV	0.548 ± 0.2
STLQVVEKPKIAPSLRCDSC	-0.169 ± 0.51
NGFCSASICREDCEMWNMQS	inactive
LIRCLVRSNVEFNNMGWWSS	inactive
LKVRLALLCRSEQRSPSTEV	inactive
NGGVLAGTMG	inactive
